Here are results for one molecule from patent US20030087407A1.

Assay [1] has as its target amyloid β-peptide 1-42 (Aβ1-42) (UniProt P05067). In words: cell-based or functional assay.
Assay [2] deals with amyloid β-peptide 1-40 (Aβ1-40) (UniProt P05067). Description: cell-based or functional assay.
Assay [3] shares this target. In words: quenching of intrinsic Tyr10 fluorescence of Aβ1-40 in solution at approximately 4 µM iAβ.
For assay [4] the target is unchanged. In words: quenching of intrinsic Tyr10 fluorescence of Aβ1-40 in solution by added iAβ, non-linear regression to a rectangular hyperbola.

For orientation: Kd means the constant that tells how readily two partners part at equilibrium. A lower Kd goes with a tighter complex. As to RDLPFFPVPID [inhibitor of Aβ fibrillogenesis peptide (iAβ)], in assay [1], the % of amyloid remaining, ThT fluorometric assay, 10-fold molar excess of peptide, 2 days was 57.9 % of amyloid; the inhibition of amyloid formation, thioflavine T fluorometric assay, 24 h, 5-fold molar excess of iAβ (% of inhibition) was 28.7; the inhibition of amyloid formation, thioflavine T fluorometric assay, 24 h, 20-fold molar excess of iAβ (% of inhibition) was determined as 72.3; the inhibition of amyloid formation, thioflavine T fluorometric assay, 24 h, 40-fold molar excess of iAβ (% of inhibition) worked out at 80.6. The reduction of preformed fibrils, thioflavine T fluorometric assay, 24 h, 40-fold molar excess of iAβ (% fibril reduction) in assay [1] was found to be 51. Also, in assay [2], the % of amyloid remaining, ThT fluorometric assay, 10-fold molar excess of peptide, 2 days was 25.5 % of amyloid; the amyloid formation, thioflavine T fluorometric assay, 24 h, 5-fold molar excess of iAβ (% of amyloid detectable in the absence of inhibitor) came out at 33.9%; the amyloid formation, thioflavine T fluorometric assay, 24 h, 20-fold molar excess of iAβ (% of amyloid detectable in the absence of inhibitor) worked out at 13.7%. Further, the maximum quenching of the total fluorescence in assay [3] worked out at 12.6%. In addition, in assay [4], the Kd stood at 75.9 nM.
